Source: patent US5786462

What was measured:
[1] = biological target: T1, HIV-1 reverse transcriptase (Human immunodeficiency virus 1) (UniProt P03366+P03366); test: filter; details: apparent Kd, HRT buffer 37 C
[2] = biological target: T1, HIV-1 reverse transcriptase (Human immunodeficiency virus 1); test: inhibition; details: Ki' printed as ≤ 3 uM; almost no inhibition at 81 nM
[3] = system: AMV reverse transcriptase (Avian myeloblastosis virus); details: intramolecular 3' extension to end of template

Sequence | Kd [1] | Ki [2] | activity [3]
ATCCGCCTGATTAGCGATACTNNNNNNNNNNNNNNNNNNNNNNNNNNNNNNNNNNNACTTGAGCAAAATCACCTGCAGGGG [RO degenerate ssDNA library] | 1400 nM | > 3000 nM | –
ATCCGCCTGATTAGCGATACTTACGTGAGCGTGCTGTCCCCTAAAGGTGATACGTCACTTGAGCAAAATCACCTGCAGGGG [RT26] | – | – | 50 % initiation
